Measurements published in patent US20210388087A1 (Chugai, published 2021).
Residue numbers refer to the chain shown, from its start. Names and notes keep the numbering of the source.

B1: dBBDu183H P100eN / dBBDu072L (antibody, name in Kabat numbering, V domains shown)
VH: QVQLVESGGGLVQPGRSLRLSCAASGFTFSNAWMHWVRQAPGKGLEWVAQIKDKGNAYAAYYAPSVKGRFTISRDDSKNSIYLQMNSLKTEDTAVYYCHYVHYASASTVLNAFGVDAWGQGTTVTVSS
VL: DIVMTQSPLSLPVTPGEPASISCQASQELVHMNRNTYLHWYQQKPGQAPRLLIYKVSNRFPGVPDRFSGSGSGTDFTLKISRVEAEDVGVYYCAQGTSVPFTFGQGTKLEIK
notes: as m1, one VH change
B2: dBBDu183H P100eQ / dBBDu072L (antibody, name in Kabat numbering, V domains shown)
VH: B1 VH with N111Q
VL: B1 VL
notes: as m1, one VH change
B3: dBBDu183H P100eR / dBBDu072L (antibody, name in Kabat numbering, V domains shown)
VH: B1 VH with N111R
VL: B1 VL
notes: as m1, one VH change
B4: dBBDu183H P100eS / dBBDu072L (antibody, name in Kabat numbering, V domains shown)
VH: B1 VH with N111S
VL: B1 VL
notes: as m1, one VH change
B5: dBBDu183H P100eT / dBBDu072L (antibody, name in Kabat numbering, V domains shown)
VH: B1 VH with N111T
VL: B1 VL
notes: as m1, one VH change
B6: dBBDu183H S62D / dBBDu072L (antibody, name in Kabat numbering, V domains shown)
VH: B1 VH with S65D, N111P
VL: B1 VL
notes: as m1, one VH change
B7: dBBDu183H S62E / dBBDu072L (antibody, name in Kabat numbering, V domains shown)
VH: B1 VH with S65E, N111P
VL: B1 VL
notes: as m1, one VH change
B8: dBBDu183H S62F / dBBDu072L (antibody, name in Kabat numbering, V domains shown)
VH: B1 VH with S65F, N111P
VL: B1 VL
notes: as m1, one VH change
B9: dBBDu183H S62G / dBBDu072L (antibody, name in Kabat numbering, V domains shown)
VH: B1 VH with S65G, N111P
VL: B1 VL
notes: as m1, one VH change
B10: dBBDu183H S62H / dBBDu072L (antibody, name in Kabat numbering, V domains shown)
VH: B1 VH with S65H, N111P
VL: B1 VL
notes: as m1, one VH change
B11: dBBDu183H S62K / dBBDu072L (antibody, name in Kabat numbering, V domains shown)
VH: B1 VH with S65K, N111P
VL: B1 VL
notes: as m1, one VH change
B12: dBBDu183H S62N / dBBDu072L (antibody, name in Kabat numbering, V domains shown)
VH: B1 VH with S65N, N111P
VL: B1 VL
notes: as m1, one VH change
B13: dBBDu183H S62Q / dBBDu072L (antibody, name in Kabat numbering, V domains shown)
VH: B1 VH with S65Q, N111P
VL: B1 VL
notes: as m1, one VH change
B14: dBBDu183H S62R / dBBDu072L (antibody, name in Kabat numbering, V domains shown)
VH: B1 VH with S65R, N111P
VL: B1 VL
notes: as m1, one VH change
B15: dBBDu183H S62T / dBBDu072L (antibody, name in Kabat numbering, V domains shown)
VH: B1 VH with S65T, N111P
VL: B1 VL
notes: as m1, one VH change
B16: dBBDu183H S62V / dBBDu072L (antibody, name in Kabat numbering, V domains shown)
VH: B1 VH with S65V, N111P
VL: B1 VL
notes: as m1, one VH change
B17: dBBDu183H S62W / dBBDu072L (antibody, name in Kabat numbering, V domains shown)
VH: B1 VH with S65W, N111P
VL: B1 VL
notes: as m1, one VH change
B18: dBBDu183H S62Y / dBBDu072L (antibody, name in Kabat numbering, V domains shown)
VH: B1 VH with S65Y, N111P
VL: B1 VL
notes: as m1, one VH change

molecular target: T1, Human CD137 ECD (human); assay: SPR, vs parent H183/L072
T1 construct: also called 4-1BB
T1 sequence (chain, as listed by the source limits assumed): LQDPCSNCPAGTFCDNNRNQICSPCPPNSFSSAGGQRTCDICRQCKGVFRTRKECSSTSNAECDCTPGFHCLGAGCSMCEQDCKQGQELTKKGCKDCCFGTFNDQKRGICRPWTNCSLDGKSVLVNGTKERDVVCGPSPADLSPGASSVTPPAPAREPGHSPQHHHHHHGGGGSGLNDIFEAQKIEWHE

Row | fold change of affinity [fold] | Binder
1 | 0.2 | B1
2 | 0.4 | B2
3 | 0.3 | B3
4 | 0.4 | B4
5 | 0.2 | B5
6 | 0.9 | B6
7 | 0.8 | B7
8 | 0.5 | B8
9 | 1 | B9
10 | 0.9 | B10
11 | 0.9 | B11
12 | 0.9 | B12
13 | 1 | B13
14 | 1.1 | B14
15 | 1 | B15
16 | 0.9 | B16
17 | 0.8 | B17
18 | 0.7 | B18
